According to article PMC3647168 (Scientific Reports, 2013):

Target: T1, His-DDA3 (UniProt Q6PGN9 1-363)
T1 sequence (looked up): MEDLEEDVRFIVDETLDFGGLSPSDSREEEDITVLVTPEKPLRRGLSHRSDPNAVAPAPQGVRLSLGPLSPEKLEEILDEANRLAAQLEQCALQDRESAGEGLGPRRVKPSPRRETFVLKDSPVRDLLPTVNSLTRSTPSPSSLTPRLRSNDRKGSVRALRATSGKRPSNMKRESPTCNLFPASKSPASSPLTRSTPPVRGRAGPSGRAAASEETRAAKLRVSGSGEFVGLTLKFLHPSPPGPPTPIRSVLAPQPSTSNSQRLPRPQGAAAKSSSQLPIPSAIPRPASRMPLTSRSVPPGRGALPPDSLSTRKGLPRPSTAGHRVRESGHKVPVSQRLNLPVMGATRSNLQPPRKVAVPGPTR
Test: pull-down

B1: GST-EB1 (natural protein, UniProt Q15691 1-268, looked up)
chain: MAVNVYSTSVTSDNLSRHDMLAWINESLQLNLTKIEQLCSGAAYCQFMDMLFPGSIALKKVKFQAKLEHEYIQNFKILQAGFKRMGVDKIIPVDKLVKGKFQDNFEFVQWFKKFFDANYDGKDYDPVAARQGQETAVAPSLVAPALNKPKKPLTSSSAAPQRPISTQRTAAAPKAGPGVVRKNPGVGNGDDEAAELMQQVNVLKLTVEDLEKERDFYFGKLRNIELICQENEGENDPVLQRIVDILYATDEGFVIPDEGGPQEEQEEY
binding result: binds
